From publication PMC12486813
pKd: −log10 of the molar value.

Biological target: FcγRI (CD64) (UniProt P12314)
Assay: BLI; binding-dissociation kinetics of FcγRI (CD64) with the antibody; who was immobilised not stated for this experiment; KD is the average of two independent experiments

Chain of UniProt P12314 (P12314 16-374): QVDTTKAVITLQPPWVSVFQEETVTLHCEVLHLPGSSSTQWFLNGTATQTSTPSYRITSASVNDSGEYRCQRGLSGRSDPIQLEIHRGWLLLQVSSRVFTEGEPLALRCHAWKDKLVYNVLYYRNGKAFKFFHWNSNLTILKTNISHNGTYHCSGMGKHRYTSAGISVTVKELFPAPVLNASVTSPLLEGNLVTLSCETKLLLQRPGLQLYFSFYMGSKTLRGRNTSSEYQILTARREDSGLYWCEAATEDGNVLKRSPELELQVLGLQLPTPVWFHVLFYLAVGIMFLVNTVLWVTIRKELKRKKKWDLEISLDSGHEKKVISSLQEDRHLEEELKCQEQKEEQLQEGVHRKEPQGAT

pKd: 5.32
Substance: 5C8 (LALA) (antibody)
